B1: CD19-D1+2-C11D5.3 scFv (VH/VL) (construct #92) (other)
chain: PEEPLVVKVEEGDNAVLQCLKGTSDGPTQQLTWSRESPLKPFLKLSLGLPGLGIHMRPLAIWLFIFNVSQQMGGFYLCQPGPPSEKAWQPGWTVNVEGSGELFRWNVSDLGGLGCGLKNRSSEGPSSPSGKLMSPKLYVWAKDRPEIWEGEPPCLPPRDSLNQSLSQDLTMAPGSTLWLSCGVPPDSVSRGPLSWTHVHPKGPKSLLSLELKDDRPARDMWVMETGLLLPRATAQDAGKYYCHRGNLTMSFHLEITARPGGGGSGGGGSGGGGSGGGGSQIQLVQSGPELKKPGETVKISCKASGYTFTDYSINWVKRAPGKGLKWMGWINTETREPAYAYDFRGRFAFSLETSASTAYLQINNLKYEDTATYFCALDYSYAMDYWGQGTSVTVSSGSTSGSGKPGSGEGSTKGDIVLTQSPPSLAMSLGKRATISCRASESVTILGSHLIHWYQQKPGQPPTLLIQLASNVQTGVPARFSGSGSRTDFTLTIDPVEEDDVAVYYCLQSRTIPRTFGGGTKLEIKGGGGSGGGGSGGGGSHHHHHH
notes: C-terminal His tag
B2: CD19-D1+2-Leu16 scFv (VL/VH) (construct #85) (other)
chain: PEEPLVVKVEEGDNAVLQCLKGTSDGPTQQLTWSRESPLKPFLKLSLGLPGLGIHMRPLAIWLFIFNVSQQMGGFYLCQPGPPSEKAWQPGWTVNVEGSGELFRWNVSDLGGLGCGLKNRSSEGPSSPSGKLMSPKLYVWAKDRPEIWEGEPPCLPPRDSLNQSLSQDLTMAPGSTLWLSCGVPPDSVSRGPLSWTHVHPKGPKSLLSLELKDDRPARDMWVMETGLLLPRATAQDAGKYYCHRGNLTMSFHLEITARPGGGGSGGGGSGGGGSGGGGSDIELTQSPTILSASPGEKVTMTCRASSSVNYMDWYQKKPGSSPKPWIYATSNLASGVPARFSGSGSGTSYSLTISRVEAEDAATYYCQQWSFNPPTFGGGTKLEIKRGGGGSGGGGSGGGGSMAQVKLQESGAELVKPGASVKMSCKASGYTFTSYNMHWVKQTPGQGLEWIGAIYPGNGDTSYNQKFKGKATLTADKSSSTAYMQLSSLTSEDSADYYCARSNYYGSSYWFFDVWGQGTTVTVSSAAAHHHHHH
notes: C-terminal His tag
B3: CD19-ECD-Leu16 scFv (VH/VL) (construct #63) (other)
chain: PEEPLVVKVEEGDNAVLQCLKGTSDGPTQQLTWSRESPLKPFLKLSLGLPGLGIHMRPLAIWLFIFNVSQQMGGFYLCQPGPPSEKAWQPGWTVNVEGSGELFRWNVSDLGGLGCGLKNRSSEGPSSPSGKLMSPKLYVWAKDRPEIWEGEPPCLPPRDSLNQSLSQDLTMAPGSTLWLSCGVPPDSVSRGPLSWTHVHPKGPKSLLSLELKDDRPARDMWVMETGLLLPRATAQDAGKYYCHRGNLTMSFHLEITARPVLWHWLLRTGGWKGGGGSGGGGSGGGGSGGGGSEVQLQQSGAELVKPGASVKMSCKASGYTFTSYNMHWVKQTPGQGLEWIGAIYPGNGDTSYNQKFKGKATLTADKSSSTAYMQLSSLTSEDSADYYCARSNYYGSSYWFFDVWGAGTTVTVSSGSTSGGGSGGGSGGGGSSDIVLTQSPAILSASPGEKVTMTCRASSSVNYMDWYQKKPGSSPKPWIYATSNLASGVPARFSGSGSGTSYSLTISRVEAEDAATYYCQQWSFNPPTFGGGTKLEIKHHHHHH
notes: C-terminal His tag; also called CD19 full-length extracellular domain-anti-CD20 Leu16 scFv VH-VL-His fusion protein
B4: C11D5.3 scFv (VL/VH) (construct #89) (scFv)
scFv: DIVLTQSPPSLAMSLGKRATISCRASESVTILGSHLIHWYQQKPGQPPTLLIQLASNVQTGVPARFSGSGSRTDFTLTIDPVEEDDVAVYYCLQSRTIPRTFGGGTKLEIKGSTSGSGKPGSGEGSTKGQIQLVQSGPELKKPGETVKISCKASGYTFTDYSINWVKRAPGKGLKWMGWINTETREPAYAYDFRGRFAFSLETSASTAYLQINNLKYEDTATYFCALDYSYAMDYWGQGTSVTVSSGGGGSGGGGSGGGGSHHHHHH
notes: C-terminal His tag
B5: C11D5.3 scFv (VH/VL) (construct #90) (scFv)
scFv: QIQLVQSGPELKKPGETVKISCKASGYTFTDYSINWVKRAPGKGLKWMGWINTETREPAYAYDFRGRFAFSLETSASTAYLQINNLKYEDTATYFCALDYSYAMDYWGQGTSVTVSSGSTSGSGKPGSGEGSTKGDIVLTQSPPSLAMSLGKRATISCRASESVTILGSHLIHWYQQKPGQPPTLLIQLASNVQTGVPARFSGSGSRTDFTLTIDPVEEDDVAVYYCLQSRTIPRTFGGGTKLEIKGGGGSGGGGSGGGGSHHHHHH
notes: C-terminal His tag
B6: CD19-D1+2-Leu16 scFv (VH/VL) (construct #83) (other)
chain: PEEPLVVKVEEGDNAVLQCLKGTSDGPTQQLTWSRESPLKPFLKLSLGLPGLGIHMRPLAIWLFIFNVSQQMGGFYLCQPGPPSEKAWQPGWTVNVEGSGELFRWNVSDLGGLGCGLKNRSSEGPSSPSGKLMSPKLYVWAKDRPEIWEGEPPCLPPRDSLNQSLSQDLTMAPGSTLWLSCGVPPDSVSRGPLSWTHVHPKGPKSLLSLELKDDRPARDMWVMETGLLLPRATAQDAGKYYCHRGNLTMSFHLEITARPGGGGSGGGGSGGGGSGGGGSMAQVKLQESGAELVKPGASVKMSCKASGYTFTSYNMHWVKQTPGQGLEWIGAIYPGNGDTSYNQKFKGKATLTADKSSSTAYMQLSSLTSEDSADYYCARSNYYGSSYWFFDVWGQGTTVTVSSGGGGSGGGGSGGGGSDIELTQSPTILSASPGEKVTMTCRASSSVNYMDWYQKKPGSSPKPWIYATSNLASGVPARFSGSGSGTSYSLTISRVEAEDAATYYCQQWSFNPPTFGGGTKLEIKRAAAHHHHHH
notes: C-terminal His tag
B7: anti-FMC63 antibody 136.20.1 (constructs #151/#152) (antibody, V domains shown)
VH: EVKLVESGGGLVQPGGSLKLSCAASGFDFSRYWMSWVRQAPGKGLEWIGEINLDSSTINYTPSLKDKFIISRDNAKNTLYLQMSKVRSEDTALYYCARRYDAMDYWGQGTSVTVSS
VL: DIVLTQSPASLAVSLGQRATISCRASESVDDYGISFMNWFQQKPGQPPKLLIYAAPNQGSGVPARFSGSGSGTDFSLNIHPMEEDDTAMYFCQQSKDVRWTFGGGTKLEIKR
notes: supernatant or purified protein (5 ug/ml); also called anti-FMC63 (anti-Id) antibody; secreted anti-FMC63 antibody
B8: CD19-D1+2-C11D5.3 scFv (VL/VH) (construct #91) (other)
chain: PEEPLVVKVEEGDNAVLQCLKGTSDGPTQQLTWSRESPLKPFLKLSLGLPGLGIHMRPLAIWLFIFNVSQQMGGFYLCQPGPPSEKAWQPGWTVNVEGSGELFRWNVSDLGGLGCGLKNRSSEGPSSPSGKLMSPKLYVWAKDRPEIWEGEPPCLPPRDSLNQSLSQDLTMAPGSTLWLSCGVPPDSVSRGPLSWTHVHPKGPKSLLSLELKDDRPARDMWVMETGLLLPRATAQDAGKYYCHRGNLTMSFHLEITARPGGGGSGGGGSGGGGSGGGGSDIVLTQSPPSLAMSLGKRATISCRASESVTILGSHLIHWYQQKPGQPPTLLIQLASNVQTGVPARFSGSGSRTDFTLTIDPVEEDDVAVYYCLQSRTIPRTFGGGTKLEIKGSTSGSGKPGSGEGSTKGQIQLVQSGPELKKPGETVKISCKASGYTFTDYSINWVKRAPGKGLKWMGWINTETREPAYAYDFRGRFAFSLETSASTAYLQINNLKYEDTATYFCALDYSYAMDYWGQGTSVTVSSGGGGSGGGGSGGGGSHHHHHH
notes: C-terminal His tag

Assays:
[1] = target: T1, Human BCMA Protein, Fc Tag (R&D Systems, Cat#193-BC-050) (human, UniProt Q02223 1-54); assay: ELISA, plate-bound Human BCMA-Fc (FIG. 66A), anti-HIS-HRP
T1 construct: Bought reagent; also called Human BCMA-Fc; BCMA-Fc
T1 sequence (looked up): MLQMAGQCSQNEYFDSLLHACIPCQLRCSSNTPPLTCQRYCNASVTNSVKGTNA

[2] = target: T2, CD20 on stable transfectant line 293-CD20 (UniProt P11836 1-297); assay: flow cytometry, 293-CD20 cells, FMC63-PE
T2 construct: whole, on cells; also called CD20 expressing 293 cells
T2 sequence (looked up): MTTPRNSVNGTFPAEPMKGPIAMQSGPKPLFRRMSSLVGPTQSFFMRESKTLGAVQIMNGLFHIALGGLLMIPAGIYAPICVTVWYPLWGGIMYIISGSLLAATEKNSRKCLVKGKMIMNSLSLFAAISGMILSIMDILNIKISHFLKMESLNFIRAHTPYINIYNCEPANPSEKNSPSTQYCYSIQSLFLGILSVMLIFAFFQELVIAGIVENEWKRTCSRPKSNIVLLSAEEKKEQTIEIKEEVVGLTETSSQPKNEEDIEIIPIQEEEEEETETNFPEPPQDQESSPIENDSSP

[3] = target: T2, CD20 on stable transfectant line …; assay: flow cytometry, 293-CD20 cells, 200 µl fusion protein, FMC63-PE
[4] = target: T2, CD20 on stable transfectant line …; assay: flow cytometry, 293-CD20 cells, FMC63-PE or anti-HIS-PE
[5] = target: T3, FMC63 CAR-Flag (construct #140) on transfected 293T cells; assay: flow cytometry, 293T cells transfected with #140, supernatant or 5 ug/ml purified #151/#152, anti-mouse Fc gamma-PE
T3 construct: FMC63 VL-VH-Flag-CD28 linker/transmembrane/ICD-4-1BB ICD-CD3z ICD; also called anti-CD19 FMC63 CAR; CAR19
T3 sequence (chain, as listed by the source limits assumed): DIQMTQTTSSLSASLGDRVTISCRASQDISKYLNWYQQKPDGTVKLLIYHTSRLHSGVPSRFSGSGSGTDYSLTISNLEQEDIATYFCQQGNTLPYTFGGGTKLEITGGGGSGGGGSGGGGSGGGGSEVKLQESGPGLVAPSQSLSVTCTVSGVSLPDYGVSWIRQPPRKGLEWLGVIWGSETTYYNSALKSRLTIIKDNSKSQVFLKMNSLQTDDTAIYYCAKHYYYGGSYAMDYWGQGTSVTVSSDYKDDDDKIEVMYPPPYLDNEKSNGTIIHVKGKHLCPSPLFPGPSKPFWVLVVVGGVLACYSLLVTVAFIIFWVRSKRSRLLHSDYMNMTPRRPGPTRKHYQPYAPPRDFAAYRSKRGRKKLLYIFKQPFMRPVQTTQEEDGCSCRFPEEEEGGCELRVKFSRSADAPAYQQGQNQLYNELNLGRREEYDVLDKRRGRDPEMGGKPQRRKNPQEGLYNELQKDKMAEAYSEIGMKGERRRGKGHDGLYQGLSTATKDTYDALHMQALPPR

Binder	binding result [1]	further results
B1	binds	–
B2	–	binding result [2]: no binding (tested: 200 µl)
B3	–	binding result [3]: binds
B4	binds	–
B5	binds	–
B6	–	binding result [4]: binds
B7	–	binding result [5]: binds
B8	binds	–
